The values that follow come from patent publication US20240409645A1 (DUALYX, published 2024).

Where a chain is given by its changes, count along the chain named.

To fix the notation:
T1: human IL-2Rβ (human, UniProt P14784 27-240, limits assumed)
T1 construct: Recombinant protein, coated (ELISA) or immobilised on CM5 (SPR); also called hu IL-2R; interleukin 2 receptor β-chain
T1 sequence: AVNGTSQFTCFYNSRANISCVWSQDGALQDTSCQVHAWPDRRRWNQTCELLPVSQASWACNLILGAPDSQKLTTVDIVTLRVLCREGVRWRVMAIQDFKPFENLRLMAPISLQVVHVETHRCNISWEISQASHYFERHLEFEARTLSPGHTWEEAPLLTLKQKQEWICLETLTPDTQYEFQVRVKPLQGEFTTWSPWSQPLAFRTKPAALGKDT

B1: FJ1427 P035MP03C02 (VHH)
VHH: QVQLVESGGGLVQVGDSLRLSCAASGRTVGSANMGWFRQAPGKEREFVAVITWSTGSTVYADSVKGRFTISRDNAKNTVYLDMSSLKPEDTAVYYCAADVYPYSGNLNIMDYWGKGTLVTVSS
notes: soluble VHH in periplasmic extract; also called clone nr
B2: FJ1427_P035MP03B02 (VHH)
VHH: B1 VHH with Q1E, E89D
notes: as for B1
B3: FJ1427_P035MP03F01 (VHH)
VHH: QVQLVESGGGLVQVGGSLRVSCAASGRTSGDRNMGWFRQAPGKEREFVGIITWSSGSTVYADSVKGRFTISRDNAKNTVYLDMSSLKPEDTAVYYCAADYYPYSGSWNIMDYWGKGTLVTVSS
notes: as for B1
B4: FJ1427_P035MP03D03 (VHH)
VHH: B1 VHH with M83L, L118Q
notes: as for B1
B5: FJ1427_P035MP03H01 (VHH)
VHH: QVQLVESGGGSVQTGGSLRLSCVVSGSHFISDVMGWYRQVPGKQRELVADMADGGSAKYADSVKGRFTILRDSVKNTVTLQMSSLNPEDTGVYYCKAGLWITGRHSDYWGQGTQVTVTS
notes: soluble VHH in periplasmic extract; also called clone nr; 200
B6: FJ1427_P035MP03A04 (VHH)
VHH: B5 VHH with Q1E, A57V, A60G, S106F
notes: as for B1
B7: FJ1427 P035MP03A03 (VHH)
VHH: B5 VHH with Q1E, A57V, A60G, S106F
notes: as for B1
B8: FJ1427 P035MP03D02 (VHH)
VHH: QVQLQESGGGLVQTGGSLRLSCAVSGSRFISDVMGWYRQVPGKQRELVADMADGGSAKYADSVKGRFSILRDSVKNTVYLQMSSLKPEDTGIYYCKAGLWLAGRHSDYWGQGTQVTVSS
notes: as for B1
B9: FJ1427_P035MP03E04 (VHH)
VHH: B8 VHH with Q5V, R28H, G42E, G55N, L101I
notes: as for B1
B10: FJ1427_P035MP03B03 (VHH)
VHH: B8 VHH with V2L, Q5V, L101I
notes: soluble VHH in periplasmic extract; also called clone nr; 210
B11: FJ1427 P035MP03H05 (VHH)
VHH: QLQLVESGGGLVQAGGSLALSCAASGGTFSSYAMGWFRQAPGKEREFVAATTRGGGRTMYAVSTEGRFSCSRDNAKNTVYLLIKNLKPEDTAVYYCAARTSYYDGTYYPASSDFDIWGQGTQVTVSS
notes: as for B1
B12: FJ1427_P035MP03A02 (VHH)
VHH: QVQLVESGGGLVQAGGSLRLSCAASGGTFSSYAMGWFRQAPGKEREFVAATTRGGGRTMYAVSTEGRFTCSRDNAENTVYLQMNSLKPEDTAIYYCAAMTSYYSGTYYPDSSDFDIWGQGTQVTVSS
notes: as for B1
B13: FJ1427_P035MP03G01 (VHH)
VHH: B12 VHH with Q1E, E76K, Q82L, S85R, L86V, I93V, M99R, D110A
notes: as for B1

The first test addresses T1, human IL-2Rβ. In words: P.E. binding ELISA on coated protein. On the procedure: In a binding ELISA, human or mouse IL-2Rα, IL-2Rβ and IL-2Rγ proteins were coated directly on maxisorp microtiter plates overnight at 4° C. Free binding sites were blocked using 4% Marvel in PBS for 1 hour. Next, 1:5 dilution of P.E. in 1% Marvel/PBS were added to wells and incubated for 1 hour. […] Binding specificity was determined based on O.D. at 450 nm values compared to negative controls.
Take B1: the “P.E. binding ELISA OD” value amounted to 0.828 OD450 nm.

For B2, the “P.E. binding ELISA OD” value is 0.529 OD450 nm.

As to B3, the “P.E. binding ELISA OD” value was determined as 0.221 OD450 nm.

For B4, the “P.E. binding ELISA OD” value amounted to 0.265 OD450 nm.

In the case of B5, the “P.E. binding ELISA OD” value amounted to 0.327 OD450 nm.

As for B6, the “P.E. binding ELISA OD” value was determined as 0.305 OD450 nm.

B7: the “P.E. binding ELISA OD” value worked out at 0.296 OD450 nm.

With B8, the “P.E. binding ELISA OD” value came to 0.116 OD450 nm.

Turning to B9, the “P.E. binding ELISA OD” value came out at 0.22 OD450 nm.

As to B10, the “P.E. binding ELISA OD” value is 0.31 OD450 nm.

Consider B11, for which the “P.E. binding ELISA OD” value was found to be 0.316 OD450 nm.

As to B12, the “P.E. binding ELISA OD” value came to 0.28 OD450 nm.

Turning to B13, the “P.E. binding ELISA OD” value worked out at 0.192 OD450 nm.

The target in the next test is T1, human IL-2Rβ. In words: SPR (Biacore), P.E. off-rate ranking. In general terms: SPR reads the build-up and loss of mass on a sensor chip optically.
By koff is commonly meant the first-order rate constant of dissociation. A higher koff goes with fast dissociation. As for B1, the off-rate (koff) was 0.00159 s⁻¹.

Take B2: the koff was 0.00241 s⁻¹.

B3 had a koff of 0.00447 s⁻¹.

In the case of B4, the koff is 0.000538 s⁻¹.

The molecule B5 registered a koff of 0.000365 s⁻¹.

As to B6, the koff amounted to 0.000373 s⁻¹.

Molecule B7 showed a koff of 0.000248 s⁻¹.

Consider B8, for which the koff was found to be 0.000796 s⁻¹.

Consider B9, for which the koff was 0.000253 s⁻¹.

Molecule B10 displayed a koff of 0.000499 s⁻¹.

The molecule B11 displayed a koff of 0.000772 s⁻¹.

B12: the koff stood at 0.00104 s⁻¹.

With B13, the koff is 0.00058 s⁻¹.
